Experiment [1] deals with Arabidopsis SCE1 fused to CLuc (split-luciferase assay) (UniProt Q42551). In words: split-luciferase complementation assay in planta. The settings on record: Rep^sim NLuc + CLuc SCE1; n = 12; parent: est. 0.36; read off a plot.
The target of experiment [2] is Arabidopsis SUMO1^ΔGG fused to CLuc (split-luciferase assay) (UniProt P55852). In words: split-luciferase complementation assay in planta. The settings on record: Rep^sim NLuc + CLuc SUMO1^ΔGG; n = 12; parent: est. 0.29; read off a plot.
Sequence of UniProt P55852 (P55852 1-91, stated change not applied): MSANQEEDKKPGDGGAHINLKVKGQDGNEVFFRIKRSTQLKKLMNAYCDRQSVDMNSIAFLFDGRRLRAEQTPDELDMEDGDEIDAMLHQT

Sequence of UniProt Q42551 (Q42551 whole entry, the tested form may be a part): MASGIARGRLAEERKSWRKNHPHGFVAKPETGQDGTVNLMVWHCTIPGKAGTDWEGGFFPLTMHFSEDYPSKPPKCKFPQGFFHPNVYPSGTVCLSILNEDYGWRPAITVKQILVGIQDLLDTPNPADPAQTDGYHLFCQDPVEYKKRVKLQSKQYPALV

As for “Rep of TYLCV fused to NLuc (split-luciferase assay) I215A; V216A; I217A”, the response (fraction of total signal) was determined as 0.075 in experiment [1] and 0.08 in experiment [2].
